In PMC10591846 (Cell reports, 2023):
Where no end group is shown, it is not given here. The star is where a group is joined. Biotin = O=C1N[C@H]2[C@H](CS[C@H]2CCCCC(=O)*)N1

T1: GST-Pirh2_(15-195) (human, UniProt Q96PM5 15-195)
T1 sequence: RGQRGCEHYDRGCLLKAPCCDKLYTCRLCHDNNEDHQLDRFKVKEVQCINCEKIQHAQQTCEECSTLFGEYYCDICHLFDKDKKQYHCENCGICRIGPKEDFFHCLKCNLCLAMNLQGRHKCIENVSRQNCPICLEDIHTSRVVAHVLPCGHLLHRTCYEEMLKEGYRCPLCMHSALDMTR

T2: GST-Pirh2_(1–195) (human, UniProt Q96PM5 1-195)
T2 sequence: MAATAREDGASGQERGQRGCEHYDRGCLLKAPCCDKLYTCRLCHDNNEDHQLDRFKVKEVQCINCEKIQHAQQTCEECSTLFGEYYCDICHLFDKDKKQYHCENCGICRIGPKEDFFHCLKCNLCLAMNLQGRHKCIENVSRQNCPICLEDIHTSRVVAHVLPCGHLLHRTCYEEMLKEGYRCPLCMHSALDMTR


Columns and labels:
Assay in all cases: AlphaScreen or HTRF
[1] = biological target: T1, GST-Pirh2_(15-195)
[2] = biological target: GST-KLHDC10 (full length) with Elongin B/C (human | , UniProt Q6PID8 1-442; Q15370 1-104; Q15369 1-112)
[3] = biological target: T2, GST-Pirh2_(1–195)

Sequence of GST-KLHDC10 (full length) with Elongin B/C (Q6PID8 whole entry, chain 1 of 2): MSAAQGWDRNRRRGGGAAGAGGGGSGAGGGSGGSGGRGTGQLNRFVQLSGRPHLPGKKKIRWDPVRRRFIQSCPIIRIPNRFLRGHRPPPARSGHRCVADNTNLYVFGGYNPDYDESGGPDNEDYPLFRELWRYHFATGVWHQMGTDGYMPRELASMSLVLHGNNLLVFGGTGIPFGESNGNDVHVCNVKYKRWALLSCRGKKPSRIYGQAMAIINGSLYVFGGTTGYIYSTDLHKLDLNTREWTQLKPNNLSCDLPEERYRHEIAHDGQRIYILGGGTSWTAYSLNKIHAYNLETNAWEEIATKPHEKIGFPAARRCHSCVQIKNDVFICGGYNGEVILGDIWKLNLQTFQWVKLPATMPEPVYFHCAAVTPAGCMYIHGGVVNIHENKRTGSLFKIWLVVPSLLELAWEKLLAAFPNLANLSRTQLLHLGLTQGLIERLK
Sequence of GST-KLHDC10 (full length) with Elongin B/C (Q15369 whole entry, chain 3 of 2): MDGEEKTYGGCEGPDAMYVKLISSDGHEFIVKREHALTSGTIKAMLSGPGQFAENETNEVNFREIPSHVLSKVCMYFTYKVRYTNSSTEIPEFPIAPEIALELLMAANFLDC

Row | binding result [1] | IC50 [1] [nM] | Binder | other results
1 | binds |  | MDELAAAAA | 
2 | binds |  | LYKAAAAA | 
3 |  | ~60 | MDELYKGAAAAA | 
4 |  | ~60 | MDELYKLAAAAA | 
5 | binds |  | DELYKAAAAA | 
6 | binds |  | KAAAAA | 
7 | binds |  | YKAAAAA | 
8 | binds |  | ELYKAAAAA | 

The remaining lines, values behind:

Row | Binder | binding result [1] | IC50 [1] [nM] | other results
9 | MDELYKAAAAAA-NH2 [MDELYKAAAAAA-NH2] |  |  | fold reduction of affinity against the Ala-tail peptide with free carboxyl [1]: ~2000 fold
10 | MDELYKAAAA |  | ~2000 | 
11 | MDELYKAAAAA |  | ~50 | 
12 | Biotin-MDELYKAAAAAA [Biotin-MDELYKAAAAAA] |  |  | binding result [2]: binds
13 | MDELYKAAAAAD |  | ~26000 | 
14 | MDELYKAAAAAG |  | ~2000 | 
15 | MDELYKAAALAA |  |  | fold reduction of binding against the Ala6 peptide [1]: 3 fold
16 | MDELYKAAGAAA |  |  | fold reduction of binding against the Ala6 peptide [1]: 100 fold
17 | MDELYKAAAAAA [MDELYKAAAAAA (Ala-tail peptide, non-biotinylated)] |  | 50 to 120 | IC50 [2]: 5 to 10 nM; IC50 [3]: 90 to 120 nM
